Measured values published in patent US11839630B2, “CAR-T cells targeting IL-1RAP and their use” (ETABLISSEMENT FRANCAIS DU SANG, priority 2017, dated 2023).

Assays:
[1] = tested on: IL-1RAP-positive (KU812) cell line; test: FACS screening of hybridoma subclones; format: binding, human; settings: 5 monoclonal antibody subclones
Text: Briefly, BALB/c mice (5 weeks, Charles River) were immunized either by foot pad (n=3) or intraperitoneally (n=5) with a recombinant fusion protein consisting of the extra cellular part of IL-1RAP (NM_002182.2, NCBI) and the Fc-part of human IgG1 (R&D Systems, Lille, France). Lymph nodes or spleens cells and blood samples were harvested and cells were fused with the mouse myeloma cell line, then screened by FACS analysis (Becton Dickinson), against IL-1RAP-positive (KU812) and −negative (Raji, KG1) cell lines.
Screening of hybridoma allowed to select 5 monoclonal antibodies subclones that discriminate IL-1RAP positive (KU812 or KG-1 respectively AML or Phi^+p^210 CML) from negative cell lines (Tom-1, NALM-20, Jurkat or Raji, respectively Phi+^p190 B-ALL, Phi-B-ALL, T-ALL or Burkitt's lymphoma).
Molecular characterization was performed by Sanger sequencing of cloned PCR products amplification obtained with degenerated primers specific of the FR1 and constant regions of the heavy and light chains according to the protocol of Wang. Z., et al (J. Immunol. Methods, 2000; 233, pp 167-77). Identification of V-D-J-C gene rearrangement and CDR3 region was obtained after alignment of consensus nucleotide sequences against the IMGT® database using V-QUEST online tool according to Brochet X., et al. (Nucleic Acids Res., 2008, 36, pp 503-8).

IL-1RAP = target: T1, IL-1RAP (Homo sapiens, UniProt Q9NPH3); test: Western blot with #E3C3 mAb; format: binding; settings: leukemic cell line lysates; #E3C3 diluted 1:10^3
T1 sequence (Q9NPH3 21-570): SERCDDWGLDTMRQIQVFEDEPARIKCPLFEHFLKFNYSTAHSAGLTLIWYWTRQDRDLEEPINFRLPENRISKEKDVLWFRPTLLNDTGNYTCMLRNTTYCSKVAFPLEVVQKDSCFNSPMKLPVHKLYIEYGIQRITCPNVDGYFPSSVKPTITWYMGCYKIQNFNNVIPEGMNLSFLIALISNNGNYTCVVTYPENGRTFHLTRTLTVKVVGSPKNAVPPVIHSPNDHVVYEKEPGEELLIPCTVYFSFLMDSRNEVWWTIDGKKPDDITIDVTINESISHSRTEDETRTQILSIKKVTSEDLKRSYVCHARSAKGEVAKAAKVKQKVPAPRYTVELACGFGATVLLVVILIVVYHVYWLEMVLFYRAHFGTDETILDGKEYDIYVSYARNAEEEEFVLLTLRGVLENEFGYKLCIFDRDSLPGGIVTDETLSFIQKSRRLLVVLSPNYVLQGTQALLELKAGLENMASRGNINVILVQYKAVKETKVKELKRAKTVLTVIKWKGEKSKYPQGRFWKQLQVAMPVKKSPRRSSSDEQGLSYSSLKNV
Text: FIG. 1: Use of #E3C3 mAb in western blot. The leukemic cell lines KU812, KG-1, Nalm-20, Jurkat, and Raji are used. Transfected HT1080 cell line with IL-1RAP cDNA variant was used as control. […] Line a: detection of IL-1RAP (72 kDA), Line b: detection of the control actin (43 kDA), *: weak signal.
Whole-cell, subcellular or secreted protein fractions of cells listed in example 1 were obtained after sonication and suspended in RIPA lysis and extraction buffer (ThermoFisher Scientific) supplemented with a protease inhibitor cocktail (complete Mini EDTA-free; Roche, Switzerland). Transfected HT1080 cell line with IL-1RAP cDNA variant 1 (NM_002182.2, NCBI) was used as control. […] Transferred proteins on PDVF membranes were probed overnight with either primary IL-1RAP #E3C3 (diluted at 1:10^3), CD3zeta (BD Pharmigen, clone #8D3) or β-actin (1:10^3, clone AC15, #A5441, Sigma-Aldrich) respectively for IL-1RAP, CAR or β-actin expression. Immunodetection staining was performed with a secondary polyclonal antibody sheep anti-mouse IgG (#515-035-062, Jackson, USA). Detection was performed with a camera and Bio-1D software (Vilber-Lourmat, Collegien, France).

monocyte subpopulation = test: IL-1RAP cell surface staining of healthy donor monocytes; format: binding, human; settings: 2/5 peripheral blood and 3/5 bone marrow from healthy donors
Method: FIG. 23: Effect of IL-1RAP CAR T cells on healthy hematopoietic cells and efficiency of the safety suicide gene iCASP9 cassette. (A) IL-1RAP cell surface expression on peripheral blood (left) or bone marrow (right) cells from healthy donors (n=5). SSC-A/CD45+ allowed discrimination of subpopulations as lymphocytes (SSC-A low), monocytes (CD33+), granulocytes (SSC-A high), or HSCs (CD33−/CD34+). RFI was calculated from isotype staining and provided in each window. (B) Representative (1 of 3) IL-1RAP staining of whole human cord blood cells. IL-1RAP staining is provided for whole CD34+, CD34+/CD38−, and CD34+/CD38+ HSC cord blood subpopulations. […] Percentages were calculated using absolute cell number determined using Trucount™ tubes based on 5000 fluorescent-bead cytometry acquisition. […] The quantification was performed after acquiring 5000 fluorescent beads. […] Cell killing was calculated as follows: % Dead cells=[1−(absolute number of viable cells in AP1903-treated cells/absolute number of viable cells in untreated cells)]×100. […] (G) Absolute quantification of IL-1RAP CAR T cells injected in a tumor (CML KU812, i.v.) xenograft NSG model 24 h after i.p. AP1903 (white bars) treatment (n=3 mice/group). […]

detection in western blot (IL-1RAP): reveals KU812
B1: #E3C3: mouse anti-hIL-1RAP monoclonal antibody subclone generated by standard hybridoma technique; VH SEQ ID NO: 2, VL SEQ ID NO: 4 (antibody, V domains shown)
VH: MGWSCIILFLVATATGVNSQVQLQQPGAELMMPGASVKVSCEASGYTFTDSWMHWVKQRPGQGLEWIGAIDPSDSYTTYNQKFTGKATLSVDESSNTAYMQLSSLTSEDSAVYYCARYYSGSNYISPFPYWGQGTLVTVSA
VL: MESQIQVFVFVFLWLSGVDGDIVMTQSHKFMSTSVGDRVTITCKASLDVSTAVAWYQQKPGQSPKLLIYSASYRYTGVPDRFTGSGSGTDFTFTISSVQAEDLAVYYCQQHYSPPFTFGSGTNLEIK
modifications: Amino acid sequence of chain H (VH) of murine scFv anti-IL-1RAP; Amino acid sequence of chain K (VL) of murine scFv anti-IL-1RAP
relative fluorescence intensity (RFI) by cytometry among subclones [1]: highest relative fluorescence intensity | RFI of monocyte staining (weak staining) (monocyte subpopulation): < 2
